# Assay results from patent publication US9885709B2, “Determination of a midregional proadrenomedullin partial peptide in biological fluids for diagnostic purposes, and immunoassays for carrying out such a determination” (B.R.A.H.M.S. GMBH, priority 2003, dated 2018).
# Where “and” joins values, the source holds several entries; their conditions need not be identical. Identical values can stand only once.
# Assay: Stability investigation of mid-proAM in sepsis sera stored at room temperature
# Assay type: in vitro ADME
# Source text: For examining the question as to whether problems are likely in a measurement of mid-proAM because of insufficient stability of the mid-proAM in a sample or measuring solution, 20 sepsis sera were each measured in a fresh state and after storage for 3 days at room temperature. […] This proven stability of mid-proAM is a major advantage in terms of handling aspects for diagnosis.
substance,measurement,setting,value
"mid-proAM: peptide which contains the amino acids 45-92 of pre-proAM or consists thereof (SEQ ID NO:3); endogenous analyte, also synthesized as standard (ELRMSSSYPTGLADVKAGPAQTLIRPQDMKGASRSPEDSSPDAARIRV; listed as Homo sapiens)",immunoreactivity after storage,"20 sepsis sera, storage for 3 days at room temperature",virtually unchanged
same,Change,"Day 3 value as percent of Day 0 value, individual sepsis serum, 3 days at room temperature",92.7% and 95.7% and 109.6% and 102.8% and 96.4% and 99.9% and 106.3% and 102.1% and 95.2% and 110.7% and 80.0% and 105.5% and 102.2% and 103.4% and 89.5% and 94.1% and 98.8% and 98.1% and 97.0% and 95.4%
same,mid-proAM Day = 3,"individual sepsis serum (one patient), after storage for 3 days at room temperature",1.0 nmol/l and 1.2 nmol/l and 2.1 nmol/l (2×) and 2.7 nmol/l (2×) and 3.1 nmol/l and 4.9 nmol/l and 5.9 nmol/l and 3.4 nmol/l and 4.6 nmol/l and 2.4 nmol/l and 1.3 nmol/l and 1.5 nmol/l (2×) and 1.8 nmol/l (2×) and 2.0 nmol/l and 6.1 nmol/l and 3.2 nmol/l
same,mid-proAM Day = 0,"individual sepsis serum (one patient), measured in a fresh state",1.1 nmol/L and 1.3 nmol/L and 1.9 nmol/L and 2.6 nmol/L and 2.8 nmol/L and 3.1 nmol/L and 4.6 nmol/L and 5.8 nmol/L and 3.6 nmol/L and 4.2 nmol/L and 3.0 nmol/L and 1.2 nmol/L and 1.5 nmol/L and 1.7 nmol/L and 2.0 nmol/L and 2.1 nmol/L and 6.2 nmol/L and 3.3 nmol/L and 2.2 nmol/L and 1.6 nmol/L
